Measurements reported in paper PMC5150636, “Isolated pores dissected from human two-pore channel 2 are functional” (Scientific Reports, 2016).

Molecular target: the molecule itself
Assay: SEC; Superdex 200 10/300 GL, buffer A (25 mM Tris, 500 mM NaCl, 0.174% (w/v) DM, pH 7.4), 0.5 ml/min, column calibrated with protein standards; fractions read by SDS PAGE; oligomer size from the elution volume

B1: human TPC2 DI pore (S212-A337), hexa-histidine-tagged (domain or fragment, UniProt Q8NHX9 212-337, looked up)
chain: SLPEMASVGLLLAIHLCLFTMFGMLLFAGGKQDDGQDRERLTYFQNLPESLTSLLVLLTTANNPDVMIPAYSKNRAYAIFFIVFTVIGSLFLMNLLTAIIYSQFRGYLMKSLQTSLFRRRLGTRAA
notes: two-pore channel 2 (TPC2), human, domain I pore region (S5-S6), residues S212-A337, codon-optimised synthetic gene in pET15b; numbers count on the full length channel; No removal of the His tag is described; also called hexaHis-DI pore; DI pore-only protein
B1 was tested, and the “stoichiometry N” value was 4.
